{"source": "patent US20020045208A1", "target": "bFGF receptor molecules present on the surface of the B16 cells (mouse)", "test": "cell-based or functional assay"}
{"substance": "bFGF-MLA/rMLB associated fusion protein (bFGF-MLA coupled to rMLB under co-folding) (from UniProt P09038 134-288)", "values": [{"measurement": "cytotoxic effect on B16 cells (MTT viability), IC50", "result": 10, "unit": "ng/mL"}, {"measurement": "improvement of the IC50 value on B16 cells against bFGF-MLA", "result": 5, "unit": "fold"}]}
{"substance": "bFGF-MLA fusion protein (basic fibroblast growth factor fused to the N terminus of rMLA) (from UniProt P09038 134-288)", "values": [{"measurement": "cytotoxic activity on B16 cells (WST-1 viability), IC50", "result": 48, "unit": "ng/mL"}, {"measurement": "increase of toxicity against rMLA alone on B16 cells", "result": "> 100", "unit": "fold"}]}
